Tests used:
[1] = biological target: von Willebrand factor (human (endogenous in whole blood)) (UniProt P04275)
[2] = biological target: von Willebrand factor (human (endogenous in whole blood)) (UniProt P04275); remark: listed apart in the source

platelet adhesion at the stenosis apex, control (platelets/mm^2) [1]: 3930
platelet adhesion in the stenosis outlet, control (platelets/mm^2) [1]: 5040
platelet rolling velocity at the stenosis apex, control [1]: 4.41 μm s^-1
platelet rolling velocity at the stenosis apex, with scFv A1 [1]: 4.6 μm s^-1
share of slow-rolling platelets at constant shear [2]: 36%
share of slow-rolling platelets at shear rate gradient [2]: 52.9%
Substance: platelet GPIbα (from UniProt P07359 17-652) (receptor)

From PMC8561297
